The source of these data is patent US20030211979A1, “FAP-activated anti-tumor compounds” (Boehringer Ingelheim Pharma GmbH & Co. KG, priority 2002, published 2003).

A short description of series [1]: Solubility test in a phosphate buffer. It is filed as physicochemical. The text has this:
The solubilities of the compounds of formula
in a phosphate buffer have been compared.

Another series addresses T1, FAP (Homo sapiens, UniProt Q12884).
T1 construct: expressed in transfected cells; host or cells: 293 cells stably transfected with FAP; cell extract
T1 sequence (Q12884 1-760): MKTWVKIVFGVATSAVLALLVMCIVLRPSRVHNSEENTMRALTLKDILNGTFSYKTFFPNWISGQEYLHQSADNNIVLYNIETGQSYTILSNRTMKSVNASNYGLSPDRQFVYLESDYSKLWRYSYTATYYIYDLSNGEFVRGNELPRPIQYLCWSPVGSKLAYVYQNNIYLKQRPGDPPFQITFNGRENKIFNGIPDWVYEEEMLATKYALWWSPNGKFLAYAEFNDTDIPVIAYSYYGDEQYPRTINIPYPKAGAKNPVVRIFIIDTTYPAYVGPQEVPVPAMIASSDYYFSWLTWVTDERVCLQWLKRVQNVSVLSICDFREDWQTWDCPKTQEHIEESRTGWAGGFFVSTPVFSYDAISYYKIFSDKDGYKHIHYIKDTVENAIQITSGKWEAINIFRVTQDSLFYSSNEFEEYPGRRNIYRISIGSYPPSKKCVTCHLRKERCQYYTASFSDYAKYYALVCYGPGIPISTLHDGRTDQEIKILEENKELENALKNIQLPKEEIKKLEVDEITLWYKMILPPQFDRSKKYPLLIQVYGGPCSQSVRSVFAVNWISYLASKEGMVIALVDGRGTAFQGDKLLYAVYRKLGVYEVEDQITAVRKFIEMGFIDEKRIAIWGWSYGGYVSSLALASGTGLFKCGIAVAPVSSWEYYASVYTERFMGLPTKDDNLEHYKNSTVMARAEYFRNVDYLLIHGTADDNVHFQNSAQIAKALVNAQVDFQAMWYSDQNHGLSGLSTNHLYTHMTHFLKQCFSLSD
Put plainly: Assay for cleavage of MNA substrates by FAP. It is filed as biochemical. Conditions: 1 ng FAP enzyme (extract of FAP-transfected 293 cells), 20 μl 2.5 mM substrate, 1 hour at room temperature, fluorescence Ex 355/Em 405 nm, FAP-negative 293 control subtracted. Here is the method:
Assay for Cleavage of MNA Substrates by FAP: Buffer A: 100 mM Tris HCl pH 7.8, 100 mM NaCl Cell extract from 293 cells stably transfected with FAP prepared as described (see Park, et al., Fibroblast Activation Protein, a Dual Specificity Serine Protease expressed in human tumor stromal fibroblasts. (1999) J. Biol. Chem. 36505-12.). A similar extract was also prepared from parental 293 control cells without FAP. The FAP concentration in the FAP-transfected cell extract was estimated by immunoassay and 1 ng enzyme (diluted in buffer A) was used per assay. FAP-negative 293 control cell extract was used at the same dilution (also in buffer A) as a negative control. Substrate was initially dissolved in dimethylformamide at a concentration of 200 mM and diluted in buffer A to a final concentration of 2.5 mM. A few substrates were not soluble at this concentration and had to be diluted further. Assay Conditions: 10 μl 10% DMSO in buffer A 70 μl diluted FAP cell extract containing 1 ng FAP enzyme (OR control 293 cell extract without FAP) 20 μl 2.5 mM substrate Mix, incubate at room temperature for 1 hour, and measure fluorescence in Fluorostar fluorimeter at the following wavelengths: MNA conjugates: Excitation: 355 nm, Emission: 405 nm. The fluorescence measured in the samples treated with control 293 control cell extracts without FAP is subtracted from the values measured in the samples treated with 1 ng FAP enzyme.

Usually solubility stands for how much of the substance goes into solution per volume. Lower therefore signals little dissolved substance.

Consider `COc1cccc2c1C(=O)c1c(O)c3c(c(O)c1C2=O)C[C@@](O)(C(=O)CO)C[C@@H]3OC1CC(NC(=O)[C@@H]2CCCN2C(=O)CNC(=O)[C@H](C)NC(=O)[C@@H]2CCCN2C(=O)Cc2ccccc2)C(O)C(C)O1` (some centres unmarked) [B, reference compound], for which, in series [1], the solubility was less than 2000 µg/mL.

For the molecule “[2-(2-Carboxymethyl-phenyl)-acetyl]-Pro-Ala-Gly-Pro-MNA (PAGP; N-terminal 2-carboxymethylphenylacetyl; C-terminal MNA; printed: Pro-Ala-Gly-Pro-)”, in the series with FAP, the Cleavage worked out at 0.94 µM.

For “[2-(3-Carboxymethyl-phenyl)-acetyl]-N-MeIle-Ala-Gly-Pro-MNA (IAGP; N-terminal 3-carboxymethylphenylacetyl, N-methyl; C-terminal MNA; printed: Ile-Ala-Gly-Pro-)”, the Cleavage in the series with FAP was 15.36 µM.

“[2-(3-Carboxymethyl-phenyl)-acetyl]-N-MeLeu-Ala-Gly-Pro-MNA (LAGP; N-terminal 3-carboxymethylphenylacetyl, N-methyl; C-terminal MNA; printed: Leu-Ala-Gly-Pro-)” had a Cleavage in the series with FAP of 12.00 µM.

With “[2-(3-Carboxymethyl-phenyl)-acetyl]-N-MeVal-Ala-Gly-Pro-MNA (VAGP; N-terminal 3-carboxymethylphenylacetyl, N-methyl; C-terminal MNA; printed: Val-Ala-Gly-Pro-)”, in the series with FAP, the Cleavage is 9.52 µM.

Take “[2-(3-Carboxymethyl-phenyl)-acetyl]-Pro-Ala-Gly-Pro-MNA (PAGP; N-terminal 3-carboxymethylphenylacetyl; C-terminal MNA; printed: Pro-Ala-Gly-Pro-)”: the Cleavage with FAP was 2.80 µM.

For “[2-(4-Carboxymethyl-phenyl)-acetyl]-Aze-Ala-Gly-Pro-MNA”, the Cleavage on FAP is 9.54 µM.

As to “[2-(4-Carboxymethyl-phenyl)-acetyl]-N-MeIle-Ala-Gly-Pro-MNA (IAGP; N-terminal 4-carboxymethylphenylacetyl, N-methyl; C-terminal MNA; printed: Ile-Ala-Gly-Pro-)”, in the series with FAP, the Cleavage amounted to 16.36 µM.

“[2-(4-Carboxymethyl-phenyl)-acetyl]-N-MeLeu-Ala-Gly-Pro-MNA (LAGP; N-terminal 4-carboxymethylphenylacetyl, N-methyl; C-terminal MNA; printed: Leu-Ala-Gly-Pro-)” displayed a Cleavage with FAP of 13.97 µM.

Consider “[2-(4-Carboxymethyl-phenyl)-acetyl]-N-MeVal-Ala-Gly-Pro-MNA (VAGP; N-terminal 4-carboxymethylphenylacetyl, N-methyl; C-terminal MNA; printed: Val-Ala-Gly-Pro-)”, for which, in the series with FAP, the Cleavage came to 13.39 µM.

The molecule “[2-(4-Carboxymethyl-phenyl)-acetyl]-Pro-Ala-Gly-Pro-MNA (PAGP; N-terminal 4-carboxymethylphenylacetyl; C-terminal MNA; printed: Pro-Ala-Gly-Pro-)” came in with a Cleavage in the series with FAP of 7.25 µM.
